Values belong to the molecule of their own block, whether it stands above or below them.
How the values were obtained:
[1] = target: AtCYT6-CTD_(long), the C-terminal domain containing the interdomain linker at its N-terminus (Arabidopsis thaliana); assay: SEC; Superdex 75, 500 uL of protein at up to 2 mg/mL, 20 mM Tris pH 7.5, 50 mM NaCl, nonreducing, room temperature
[2] = target: the molecule itself; assay: SEC; Superdex 200, 500 uL of AtCYT6 at 2 mg/mL, 20 mM Tris pH 7.5, 50 mM NaCl, without or with 2 mM DTT, room temperature
[3] = target: the molecule itself; assay: cross-linking; 0.175% (w/v) glutaraldehyde, protein at 0.3 mg/mL in 20 mM citric acid pH 5.5, 100 mM NaCl, room temperature, 1, 5 and 10 min, read by SDS-PAGE
[4] = target: the molecule itself; assay: SEC; Superdex 75, 500 uL of protein at up to 2 mg/mL, 20 mM Tris pH 7.5, 50 mM NaCl, nonreducing, room temperature
[5] = target: T1, Papain from Carica papaya (Carica papaya, UniProt P00784 134-345); assay: cell-based or functional assay
T1 sequence (looked up): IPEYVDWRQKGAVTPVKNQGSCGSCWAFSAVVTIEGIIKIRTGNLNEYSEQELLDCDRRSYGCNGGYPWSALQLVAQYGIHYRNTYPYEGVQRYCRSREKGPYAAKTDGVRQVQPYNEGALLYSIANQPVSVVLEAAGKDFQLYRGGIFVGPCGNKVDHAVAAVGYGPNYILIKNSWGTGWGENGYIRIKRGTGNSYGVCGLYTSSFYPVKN

stoichiometry N [1]: 2
Molecule: AtCYT6-CTD_(long), the C-terminal domain containing the interdomain linker at its N-terminus (domain or fragment)

B1: Arabidopsis thaliana phytocystatin 6 (AtCYT6), full-length AtCYT6 lacking the N-terminal signal peptide (natural protein, UniProt Q8H0X6 35-234, looked up)
chain: ALVGGVGDVPANQNSGEVESLARFAVDEHNKKENALLEFARVVKAKEQVVAGTLHHLTLEILEAGQKKLYEAKVWVKPWLNFKELQEFKPASDAPAITSSDLGCKQGEHESGWREVPGDDPEVKHVAEQAVKTIQQRSNSLFPYELLEVVHAKAEVTGEAAKYNMLLKLKRGEKEEKFKVEVHKNHEGALHLNHAEQHHD
notes: Cystatin 6 (phytocystatin 6) of Arabidopsis thaliana without the N-terminal signal peptide (M1-M34); both cystatin domains and the interdomain linker with Cys138; pET-15b vector; In the functional rows on fibrils this protein stood as washed amyloid fibrils (heated at 80 °C, pH 3.0); also called cystatin 6 from A. thaliana; source: E. coli BL21 (DE3), purified (Ni2+ IMAC, gel filtration)
binding result [2]: binds

B2: AtCYT6, alkylated before cross-linking (natural protein, Arabidopsis thaliana, UniProt Q8H0X6 35-234, looked up)
chain: ALVGGVGDVPANQNSGEVESLARFAVDEHNKKENALLEFARVVKAKEQVVAGTLHHLTLEILEAGQKKLYEAKVWVKPWLNFKELQEFKPASDAPAITSSDLGCKQGEHESGWREVPGDDPEVKHVAEQAVKTIQQRSNSLFPYELLEVVHAKAEVTGEAAKYNMLLKLKRGEKEEKFKVEVHKNHEGALHLNHAEQHHD
modifications: alkylated to prevent disulfide-mediated dimerization via Cys138
notes: As m1: cystatin 6 of Arabidopsis thaliana without the N-terminal signal peptide (M1-M34); Ala35 to Asp234 according to Uniprot ID Q8H0X6; source: E. coli BL21 (DE3), purified (Ni2+ IMAC, gel filtration), then alkylated
stoichiometry N [3]: 2

IC50 of papain inhibition in a fluorescence substrate assay: dimer peak fraction of AtCYT6-NTD against the monomer peak fraction [5]: 10 fold
B3: AtCYT6-NTD, the isolated N-terminal cystatin domain of AtCYT6 (domain or fragment, Arabidopsis thaliana, UniProt Q8H0X6 35-127, looked up)
chain: ALVGGVGDVPANQNSGEVESLARFAVDEHNKKENALLEFARVVKAKEQVVAGTLHHLTLEILEAGQKKLYEAKVWVKPWLNFKELQEFKPASD
notes: N-terminal cystatin domain of cystatin 6 of Arabidopsis thaliana; no cysteine; The limits Ala35–Asp127 are printed for the AlphaFold model named AtCYT6-NTD, on Uniprot ID Q8H0X6; pET-28a vector; also called N-terminal domain; source: E. coli BL21 (DE3), purified (Ni2+ IMAC, gel filtration)
stoichiometry N [4]: 2

Reference: publication PMC10702442, “Arabidopsis thaliana Phytocystatin 6 Forms Functional Oligomer and Amyloid Fibril States” (Biochemistry, 2023)
